Measured values reported in IntAct's records for PubMed 29892012.

B1: Ligand of Numb protein X 2 (Homo sapiens), Q8N448 (parent)
chain: MGTTSDEMVSVEQTSSSSLNPLCFECGQQHWTRENHLYNYQNEVDDDLVCHICLQPLLQPLDTPCGHTFCYKCLRNFLQEKDFCPLDRKRLHFKLCKKSSILVHKLLDKLLVLCPFSSVCKDVMQRCDLEAHLKNRCPGASHRRVALERRKTSRTQAEIENENGPTLLDPAGTLSPEADCLGTGAVPVERHLTSASLSTWSEEPGLDNPAFEESAGADTTQQPLSLPEGEITTIEIHRSNPYIQLGISIVGGNETPLINIVIQEVYRDGVIARDGRLLAGDQILQVNNYNISNVSHNYARAVLSQPCNTLHLTVLRERRFGNRAHNHSDSNSPREEIFQVALHKRDSGEQLGIKLVRRTDEPGVFILDLLEGGLAAQDGRLSSNDRVLAINGHDLKYGTPELAAQIIQASGERVNLTIARPGKPQPGNTIREAGNHSSSSQHHTPPPYYSRPSSHKDLTQCVTCQEKHITVKKEPHESLGMTVAGGRGSKSGELPIFVTSVPPHGCLARDGRIKRGDVLLNINGIDLTNLSHSEAVAMLKASAASPAVALKALEVQIVEEATQNAEEQPSTFSENEYDASWSPSWVMWLGLPSTLHSCHDIVLRRSYLGSWGFSIVGGYEENHTNQPFFIKTIVLGTPAYYDGRLKCGDMIVAVNGLSTVGMSHSALVPMLKEQRNKVTLTVICWPGSLV
B2: Coiled-coil domain-containing protein 120 (Homo sapiens), Q96HB5-4 (parent)
chain: MRREPRYQGQVGPDIHTDSERTLSSHQPRPLDSTKMEVKGQLISSPTFNAPAALFGEAAPQVKSERLRGLLDRQRTLQEALSLKLQELRKVCLQEAELTGQLPPECPLEPGERPQLVRRRPPTARAYPPPHPNQAHHSLCPAEELALEALEREVSVQQQIAAAARRLALAPDLSTEQRRRRRQVQADALRRLHELEEQLRDVRARLGLPVLPLPQPLPLSTGSVITTQGVCLGMRLAQLSQEDVVLHSESSSLSESGASHDNEEPHGCFSLAERPSPPKAWDQLRAVSGGSPERRTPWKPPPSDLYGDLKSRRNSVASPTSPTRSLPRSASSFEGRSVPATPVLTRGAGPQLCKPEGLHSRQWSGSQDSQMGFPRADPASDRASLFVARTRRSNSSEALLVDRAAGGGAGSPPAPLAPSASGPPVCKSSEVLYERPQPTPAFSSRTAGPPDPPRAARPSSAAPASRGAPRLPPVCGDFLLDYSLDRGLPRSGGGTGWGELPPAAEVPGPLSRRDGLLTMLPGPPPVYAADSNSPLLRTKDPHTRATRTKPCGLPPEAAEGPEVHPNPLLWMPPPTRIPSAGERSGHKNLALEGLRDWYIRNSGLAAGPQRRPVLPSVGPPHPPFLHARCYEVGQALYGAPSQAPLPHSRSFTAPPVSGRYYADFLYPPELSARLSDLTLEGEQSSSSDTQTPGTLV
partner: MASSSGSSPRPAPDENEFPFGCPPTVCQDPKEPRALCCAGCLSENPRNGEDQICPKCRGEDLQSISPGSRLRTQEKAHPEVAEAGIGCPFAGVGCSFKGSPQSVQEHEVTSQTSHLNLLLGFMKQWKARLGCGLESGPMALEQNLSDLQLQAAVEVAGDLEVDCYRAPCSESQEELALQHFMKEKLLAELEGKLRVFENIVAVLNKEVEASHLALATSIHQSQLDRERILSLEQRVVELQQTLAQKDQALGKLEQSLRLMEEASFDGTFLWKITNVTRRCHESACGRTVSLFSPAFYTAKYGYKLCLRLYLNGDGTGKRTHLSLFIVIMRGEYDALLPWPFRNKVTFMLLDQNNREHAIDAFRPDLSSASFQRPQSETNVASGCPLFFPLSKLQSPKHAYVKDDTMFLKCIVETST
B3: Ribosome assembly protein METTL17, mitochondrial (Homo sapiens), Q9H7H0 (parent)
chain: MAAALKCLLTLGRWCPGLGVAPQARALAALVPGVTQVDNKSGFLQKRPHRQHPGILKLPHVRLPQALANGAQLLLLGSAGPTMENQVQTLTSYLWSRHLPVEPEELQRRARHLEKKFLENPDLSQTEEKLRGAVLHALRKTTYHWQELSYTEGLSLVYMAARLDGGFAAVSRAFHEIRARNPAFQPQTLMDFGSGTGSVTWAAHSIWGQSLREYMCVDRSAAMLVLAEKLLKGGSESGEPYIPGVFFRQFLPVSPKVQFDVVVSAFSLSELPSKADRTEVVQTLWRKTGHFLVLVENGTKAGHSLLMDARDLVLKGKEKSPLDPRPGFVFAPCPHELPCPQLTNLACSFSQAYHPIPFSWNKKPKEEKFSMVILARGSPEEAHRWPRITQPVLKRPRHVHCHLCCPDGHMQHAVLTARRHGRDLYRCARVSSWGDLLPVLTPSAFPPSTAQDPSES
partner: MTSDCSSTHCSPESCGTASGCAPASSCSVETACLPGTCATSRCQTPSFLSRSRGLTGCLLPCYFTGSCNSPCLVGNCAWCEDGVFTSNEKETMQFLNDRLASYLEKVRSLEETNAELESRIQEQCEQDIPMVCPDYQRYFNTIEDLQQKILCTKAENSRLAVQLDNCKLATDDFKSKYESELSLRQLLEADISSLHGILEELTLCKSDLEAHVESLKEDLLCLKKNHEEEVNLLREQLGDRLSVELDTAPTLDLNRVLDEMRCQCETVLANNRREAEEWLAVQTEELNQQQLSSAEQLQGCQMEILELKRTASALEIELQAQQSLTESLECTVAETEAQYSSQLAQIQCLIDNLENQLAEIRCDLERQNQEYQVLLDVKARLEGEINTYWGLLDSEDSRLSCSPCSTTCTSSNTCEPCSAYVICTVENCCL
B4: Ligand of Numb protein X 2 (Homo sapiens), Q8N448 (parent)
chain: B1 chain
partner: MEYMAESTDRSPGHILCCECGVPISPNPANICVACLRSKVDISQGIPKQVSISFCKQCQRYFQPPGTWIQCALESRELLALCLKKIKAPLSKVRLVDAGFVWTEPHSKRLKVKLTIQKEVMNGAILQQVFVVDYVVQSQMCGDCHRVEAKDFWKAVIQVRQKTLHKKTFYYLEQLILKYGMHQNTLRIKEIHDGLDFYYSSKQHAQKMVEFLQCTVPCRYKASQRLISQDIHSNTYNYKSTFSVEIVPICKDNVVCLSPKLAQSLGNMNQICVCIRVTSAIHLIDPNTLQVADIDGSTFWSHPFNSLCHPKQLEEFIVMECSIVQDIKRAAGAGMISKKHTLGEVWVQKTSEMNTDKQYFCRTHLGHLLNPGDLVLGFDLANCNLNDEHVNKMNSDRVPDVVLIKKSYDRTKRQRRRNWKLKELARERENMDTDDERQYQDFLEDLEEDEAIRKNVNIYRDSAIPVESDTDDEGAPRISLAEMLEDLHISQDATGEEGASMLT
B5: Ribosome assembly protein METTL17, mitochondrial (Homo sapiens), Q9H7H0 (parent)
chain: B3 chain
partner: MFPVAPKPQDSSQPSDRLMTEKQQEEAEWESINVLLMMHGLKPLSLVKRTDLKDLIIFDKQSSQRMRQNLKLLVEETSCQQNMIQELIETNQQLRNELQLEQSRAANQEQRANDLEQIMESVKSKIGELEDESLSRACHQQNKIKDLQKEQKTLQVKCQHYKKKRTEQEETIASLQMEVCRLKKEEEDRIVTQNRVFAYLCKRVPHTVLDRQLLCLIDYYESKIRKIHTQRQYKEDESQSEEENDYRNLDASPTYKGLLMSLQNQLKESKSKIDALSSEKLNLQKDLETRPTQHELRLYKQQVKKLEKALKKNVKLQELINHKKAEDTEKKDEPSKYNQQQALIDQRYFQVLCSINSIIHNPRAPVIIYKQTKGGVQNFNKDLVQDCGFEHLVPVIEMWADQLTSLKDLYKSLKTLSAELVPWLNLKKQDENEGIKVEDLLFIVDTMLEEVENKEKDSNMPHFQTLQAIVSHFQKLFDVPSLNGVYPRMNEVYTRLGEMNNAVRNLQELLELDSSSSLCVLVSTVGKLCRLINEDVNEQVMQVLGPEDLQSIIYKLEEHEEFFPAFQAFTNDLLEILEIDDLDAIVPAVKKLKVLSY
B6: Atos homolog protein B (Homo sapiens), Q7L5A3 (parent)
chain: MRHVQAEPSPSSEPEAGPSQPPVRQGALQGGLLMGYSPAGGATSPGVYQVSIFSPPAGTSEPHRALKRQAPSTEGPRELKRGPGLGAREGLPPEEPSTVGLLGPEGPGLGLGVASQHFSHRGLCVVEQRSSVTSSWTSGAWSPPCPPSNASCNTLHTRDWASPDPGGQGSLGESPGPAPPGQLHTLDTDLHSLAQIGGKSPVAGVGNGGSLWPRESPGTANGHSPEHTPPGPGPPGPCPTKRRLLPAGEAPDVSSEEEGPAPRRRRGSLGHPTAANSSDAKATPFWSHLLPGPKEPVLDPTDCGPMGRRLKGARRLKLSPLRSLRKGPGLLSPPSASPVPTPAVSRTLLGNFEESLLRGRFAPSGHIEGFTAEIGASGSYCPQHVTLPVTVTFFDVSEQNAPAPFLGIVDLNPLGRKGYSVPKVGTVQVTLFNPNQTVVKMFLVTFDFSDMPAAHMTFLRHRLFLVPVGEEGNANPTHRLLCYLLHLRFRSSRSGRLSLHGDIRLLFSRRSLELDTGLPYELQAVTEAPHNPRYSPLP
partner: B5 partner
B7: Chaperone Ric-8A (Homo sapiens), Q9NPQ8 (parent)
chain: MEPRAVAEAVETGEEDVIMEALRSYNQEHSQSFTFDDAQQEDRKRLAELLVSVLEQGLPPSHRVIWLQSVRILSRDRNCLDPFTSRQSLQALACYADISVSEGSVPESADMDVVLESLKCLCNLVLSSPVAQMLAAEARLVVKLTERVGLYRERSFPHDVQFFDLRLLFLLTALRTDVRQQLFQELKGVRLLTDTLELTLGVTPEGNPPPTLLPSQETERAMEILKVLFNITLDSIKGEVDEEDAALYRHLGTLLRHCVMIATAGDRTEEFHGHAVNLLGNLPLKCLDVLLTLEPHGDSTEFMGVNMDVIRALLIFLEKRLHKTHRLKESVAPVLSVLTECARMHRPARKFLKAQVLPPLRDVRTRPEVGEMLRNKLVRLMTHLDTDVKRVAAEFLFVLCSESVPRFIKYTGYGNAAGLLAARGLMAGGRPEGQYSEDEDTDTDEYKEAKASINPVTGRVEEKPPNPMEGMTEEQKEHEAMKLVTMFDKLSRNRVIQPMGMSPRGHLTSLQDAMCETMEQQLSSDPDSDPD
partner: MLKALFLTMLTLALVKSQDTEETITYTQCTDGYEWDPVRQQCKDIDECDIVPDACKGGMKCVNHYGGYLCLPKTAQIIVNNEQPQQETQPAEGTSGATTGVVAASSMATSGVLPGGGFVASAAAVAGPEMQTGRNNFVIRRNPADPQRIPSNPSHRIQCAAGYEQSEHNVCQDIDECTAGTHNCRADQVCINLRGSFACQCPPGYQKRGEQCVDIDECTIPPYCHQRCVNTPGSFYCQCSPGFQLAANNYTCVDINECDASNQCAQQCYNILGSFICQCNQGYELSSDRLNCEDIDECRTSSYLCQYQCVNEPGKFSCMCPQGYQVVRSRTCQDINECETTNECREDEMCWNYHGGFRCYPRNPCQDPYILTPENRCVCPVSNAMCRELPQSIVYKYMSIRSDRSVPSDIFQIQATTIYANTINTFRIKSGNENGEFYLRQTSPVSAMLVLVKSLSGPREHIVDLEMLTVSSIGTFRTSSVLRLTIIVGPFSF
B8: Glutaredoxin-3 (Homo sapiens), O76003 (parent)
chain: MAAGAAEAAVAAVEEVGSAGQFEELLRLKAKSLLVVHFWAPWAPQCAQMNEVMAELAKELPQVSFVKLEAEGVPEVSEKYEISSVPTFLFFKNSQKIDRLDGAHAPELTKKVQRHASSGSFLPSANEHLKEDLNLRLKKLTHAAPCMLFMKGTPQEPRCGFSKQMVEILHKHNIQFSSFDIFSDEEVRQGLKAYSSWPTYPQLYVSGELIGGLDIIKELEASEELDTICPKAPKLEERLKVLTNKASVMLFMKGNKQEAKCGFSKQILEILNSTGVEYETFDILEDEEVRQGLKAYSNWPTYPQLYVKGELVGGLDIVKELKENGELLPILRGEN
partner: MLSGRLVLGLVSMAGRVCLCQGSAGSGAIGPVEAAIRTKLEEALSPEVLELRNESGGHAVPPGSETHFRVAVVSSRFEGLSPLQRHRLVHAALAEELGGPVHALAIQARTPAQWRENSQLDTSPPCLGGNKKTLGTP

Variants of: B1
Conditions: with at2l2_human PHYKPL

Variant	effect of a mutation on the interaction
P669A	with no effect

Variants of: B1
Conditions: with ip6k2_human IP6K2, Q9UHH9
Chain of ip6k2_human IP6K2, Q9UHH9 (Q9UHH9 whole entry): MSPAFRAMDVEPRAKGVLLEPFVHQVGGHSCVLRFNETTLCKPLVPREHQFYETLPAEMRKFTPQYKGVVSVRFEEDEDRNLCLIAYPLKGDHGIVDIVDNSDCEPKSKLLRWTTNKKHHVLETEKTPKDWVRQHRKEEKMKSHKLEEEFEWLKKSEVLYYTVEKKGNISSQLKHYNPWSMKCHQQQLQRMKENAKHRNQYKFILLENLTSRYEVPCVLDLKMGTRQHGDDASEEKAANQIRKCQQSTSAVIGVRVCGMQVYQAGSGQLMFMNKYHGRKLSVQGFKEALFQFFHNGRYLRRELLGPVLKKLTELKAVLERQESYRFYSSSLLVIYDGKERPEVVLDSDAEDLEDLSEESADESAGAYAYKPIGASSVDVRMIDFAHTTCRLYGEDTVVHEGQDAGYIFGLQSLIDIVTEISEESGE

Variant	effect of a mutation on the interaction
P669A	with no effect

Variants of: B1
Conditions: with atpb_human ATP5F1B

Variant	effect of a mutation on the interaction
P669A	with no effect

Variants of: B1
Conditions: with optn_human OPTN

Variant	effect of a mutation on the interaction
P669A	with no effect

Variants of: B1
Conditions: with tbb5_human TUBB

Variant	effect of a mutation on the interaction
P669A	with no effect

Variants of: B1
Conditions: with mk09_human MAPK9, P45984

Variant	effect of a mutation on the interaction
P669A	with no effect

Variants of: B1
Conditions: with ptcd3_human PTCD3, Q96EY7

Variant	effect of a mutation on the interaction
P669A	with no effect

Variants of: B1
Conditions: with lrc8e_human LRRC8E

Variant	effect of a mutation on the interaction
P669A	with no effect

Variants of: B2
Conditions: with traf1_human TRAF1, Q13077

Variant	effect of a mutation on the interaction
R346W	with no effect

Variants of: B3
Conditions: with KRT40, Q6A162

Variant	effect of a mutation on the interaction
R212H	with no effect

Variants of: B4
Conditions: with nmd3_human NMD3, Q96D46

Variant	effect of a mutation on the interaction
P669A	with no effect

Variants of: B5
Conditions: with cep70_human CEP70, Q8NHQ1

Variant	effect of a mutation on the interaction
R212H	with no effect

Variants of: B6
Conditions: with cep70_human CEP70, Q8NHQ1

Variant	effect of a mutation on the interaction
C381Y	disrupting interaction strength

Variants of: B7
Conditions: with fbln3_human EFEMP1, Q12805

Variant	effect of a mutation on the interaction
K319E	with no effect

Variants of: B8
Conditions: with bola1_human BOLA1, Q9Y3E2

Variant	effect of a mutation on the interaction
P145A	with no effect
